Measured values reported in the supplement of paper PMC10201428.
± gives the standard deviation of the averaged measurements.

B1: library; a variant is named by its letters at N, in order (parent)
chain: AATGTTGTTGATGCAACCATAAAGTGATATTTAATAATTATTTATAATCAGCAACTTAACCACAAAACAACCATATATTGATATNTCACAAAACAACCATAANTTGATATTTTTGTGAATCGAGTATTTCAGCAAAACTACTGCAGTAAGAA

Legend:
[1] = variants of: B1; experiment: relative integration efficiency (T-LR orientation) vs wild-type transposon end (log2 (normalized fold change)); transposon end mutated: left end; higher = more efficient transposition; conditions: with VchCAST RNA-guided transposition machinery (E. coli BL21(DE3) host, lacZ target)
Summary of the method: (§1)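 In E. coli BL21(DE3), a T7-driven effector plasmid was paired with a pUC57 mini-transposon donor containing 1549 left-end or 1849 right-end barcoded transposon variants. Cells grew on plates with 0.1 mM IPTG at 37°C for 18 h. Relative integration efficiency was derived from Illumina reads of genomic integration junctions against input plasmids, as a log-transformed output/input barcode fold change normalised to reference barcodes.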

[2] = variants of: B1; experiment: relative integration efficiency (T-RL orientation) vs wild-type transposon end (log2 (normalized fold change)); transposon end mutated: left end; higher = more efficient transposition; conditions: with VchCAST RNA-guided transposition machinery (E. coli BL21(DE3) host, lacZ target)
Summary of the method: as §1

Variant | relative integration efficiency (log2) [1] | relative integration efficiency (log2) [2]
AATGTTGTTGATGCAACCATAAAGTGATATTTAATAATTATTTATAATCAGCAACTTAACCACAAAACAACCATATCTTGATATCGCACAAAACAACCATAAGTTGATATTTTTGTGAATCGAGTATTTCAGCAAAACTACTGCAGTAAGAA [CG A77C T86G] | 0.141 ± 0.0087 | -0.217 ± 0.029
AATGTTGTTGATGCAACCATAAAGTGATATTTAATAATTATTTATAATCAGCAACTTAACCACAAAACAACCATATGTTGATATCTCACAAAACAACCATAAGTTGATATTTTTGTGAATCGAGTATTTCAGCAAAACTACTGCAGTAAGAA [CG A77G] | 0.0745 ± 0.45 | -0.243 ± 0.024
AATGTTGTTGATGCAACCATAAAGTGATATTTAATAATTATTTATAATCAGCAACTTAACCACAAAACAACCATATTTTGATATCTCACAAAACAACCATAAGTTGATATTTTTGTGAATCGAGTATTTCAGCAAAACTACTGCAGTAAGAA [CG A77T] | -0.192 ± 0.066 | -0.217 ± 0.059
AATGTTGTTGATGCAACCATAAAGTGATATTTAATAATTATTTATAATCAGCAACTTAACCACAAAACAACCATATTATGATATCTCACAAAACAACCATAAGTTGATATTTTTGTGAATCGAGTATTTCAGCAAAACTACTGCAGTAAGAA [CG A77T T78A] | 0.574 ± 0.48 | 0.149 ± 0.12
AATGTTGTTGATGCAACCATAAAGTGATATTTAATAATTATTTATAATCAGCAACTTAACCACAAAACAACCATATTAACATATCTCACAAAACAACCATAAGTTGATATTTTTGTGAATCGAGTATTTCAGCAAAACTACTGCAGTAAGAA [CG A77T T78A T79A G80C] | -3.86 ± 2.7 | -2.18 ± 0.89
AATGTTGTTGATGCAACCATAAAGTGATATTTAATAATTATTTATAATCAGCAACTTAACCACAAAACAACCATATATTGCTATCTCACAAAACAACCATAAGTTGATATTTTTGTGAATCGAGTATTTCAGCAAAACTACTGCAGTAAGAA [CG A81C] | -0.551 ± 0.4 | -0.479 ± 0.28
AATGTTGTTGATGCAACCATAAAGTGATATTTAATAATTATTTATAATCAGCAACTTAACCACAAAACAACCATATATTGCGATCTCACAAAACAACCATAAGTTGATATTTTTGTGAATCGAGTATTTCAGCAAAACTACTGCAGTAAGAA [CG A81C T82G] | -1.43 ± 0.033 | -0.963 ± 0.26
AATGTTGTTGATGCAACCATAAAGTGATATTTAATAATTATTTATAATCAGCAACTTAACCACAAAACAACCATATATTGCGCGCTCACAAAACAACCATAAGTTGATATTTTTGTGAATCGAGTATTTCAGCAAAACTACTGCAGTAAGAA [CG A81C T82G A83C T84G] | -1.87 ± 0.22 | -1.9 ± 0.68
AATGTTGTTGATGCAACCATAAAGTGATATTTAATAATTATTTATAATCAGCAACTTAACCACAAAACAACCATATATTGGTATCTCACAAAACAACCATAAGTTGATATTTTTGTGAATCGAGTATTTCAGCAAAACTACTGCAGTAAGAA [CG A81G] | -0.37 ± 0.32 | -0.449 ± 0.27
AATGTTGTTGATGCAACCATAAAGTGATATTTAATAATTATTTATAATCAGCAACTTAACCACAAAACAACCATATATTGTTATCTCACAAAACAACCATAAGTTGATATTTTTGTGAATCGAGTATTTCAGCAAAACTACTGCAGTAAGAA [CG A81T] | -0.4 ± 0.15 | -0.396 ± 0.57
AATGTTGTTGATGCAACCATAAAGTGATATTTAATAATTATTTATAATCAGCAACTTAACCACAAAACAACCATATATTGTAATCTCACAAAACAACCATAAGTTGATATTTTTGTGAATCGAGTATTTCAGCAAAACTACTGCAGTAAGAA [CG A81T T82A] | -1.34 ± 0.81 | -1.03 ± 0.48
AATGTTGTTGATGCAACCATAAAGTGATATTTAATAATTATTTATAATCAGCAACTTAACCACAAAACAACCATATATTGTATACTCACAAAACAACCATAAGTTGATATTTTTGTGAATCGAGTATTTCAGCAAAACTACTGCAGTAAGAA [CG A81T T82A A83T T84A] | -0.679 ± 1.2 | -0.753 ± 0.74
AATGTTGTTGATGCAACCATAAAGTGATATTTAATAATTATTTATAATCAGCAACTTAACCACAAAACAACCATATATTGATCTCTCACAAAACAACCATAAGTTGATATTTTTGTGAATCGAGTATTTCAGCAAAACTACTGCAGTAAGAA [CG A83C] | 0.152 ± 0.25 | 0.0829 ± 0.27
AATGTTGTTGATGCAACCATAAAGTGATATTTAATAATTATTTATAATCAGCAACTTAACCACAAAACAACCATATATTGATCGCTCACAAAACAACCATAAGTTGATATTTTTGTGAATCGAGTATTTCAGCAAAACTACTGCAGTAAGAA [CG A83C T84G] | -0.6 ± 0.69 | -0.94 ± 0.4
AATGTTGTTGATGCAACCATAAAGTGATATTTAATAATTATTTATAATCAGCAACTTAACCACAAAACAACCATATATTGATCGAGCACAAAACAACCATAAGTTGATATTTTTGTGAATCGAGTATTTCAGCAAAACTACTGCAGTAAGAA [AG A83C T84G T86G] | -1.31 ± 0.49 | -0.668 ± 0.067
AATGTTGTTGATGCAACCATAAAGTGATATTTAATAATTATTTATAATCAGCAACTTAACCACAAAACAACCATATATTGATGTCTCACAAAACAACCATAAGTTGATATTTTTGTGAATCGAGTATTTCAGCAAAACTACTGCAGTAAGAA [CG A83G] | 0.426 ± 0.3 | 0.00989 ± 0.23
AATGTTGTTGATGCAACCATAAAGTGATATTTAATAATTATTTATAATCAGCAACTTAACCACAAAACAACCATATATTGATTTCTCACAAAACAACCATAAGTTGATATTTTTGTGAATCGAGTATTTCAGCAAAACTACTGCAGTAAGAA [CG A83T] | -0.465 ± 0.53 | -0.189 ± 0.057
AATGTTGTTGATGCAACCATAAAGTGATATTTAATAATTATTTATAATCAGCAACTTAACCACAAAACAACCATATATTGATTACTCACAAAACAACCATAAGTTGATATTTTTGTGAATCGAGTATTTCAGCAAAACTACTGCAGTAAGAA [CG A83T T84A] | -0.352 ± 0.65 | -0.194 ± 0.16
AATGTTGTTGATGCAACCATAAAGTGATATTTAATAATTATTTATAATCAGCAACTTAACCACAAAACAACCATATATTGATTAGACACAAAACAACCATAAGTTGATATTTTTGTGAATCGAGTATTTCAGCAAAACTACTGCAGTAAGAA [GG A83T T84A T86A] | -0.405 ± 0.36 | -0.604 ± 0.36
